In the RNAGym collection of RNA variant scans (doi:10.1073/pnas.2313332121):
This sample holds only a part of the variants without activity.

B1: TPR 5TU (parent)
chain: GGAUCUUCUCGAUCUAACAAAAAAGACAAAUCUGCCACAAAGCUUGAGAGCAUCUUCGGAUGCAGAGGCGGCAGCCUUCGGUGGCGCGAUAGCGCCAACGUUCUCAACUAUGACACGCAAAACGCGUGCUCCGUUGAAUGGAGUUUAUCAUG

Variants of: B1
Experiment: polymerase ribozyme fitness, log enrichment relative to wild type (log ratio); higher = more active; in vitro selection for triplet polymerase activity
How it was run: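 Mutant libraries for each subunit of a heterodimeric triplet polymerase ribozyme were made by PCR and then transcribed. Each library underwent one round of in vitro selection in triplicate: annealing with a biotinylated primer, the partner subunit and triplets, frozen incubation at −7 °C, gel excision of extended constructs, streptavidin-bead capture and RT-PCR. Input and output libraries were Illumina-sequenced, and only genotypes with ≥10 input reads and ≥1 read per output were kept. Fitness is the logarithm, base 2, of genotype enrichment over wild-type enrichment, computed from inverse-variance-weighted replicate averages.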
With U82A U127C G152U the “polymerase ribozyme fitness (log ratio)” value was -3.97. With C103A A142G the “polymerase ribozyme fitness (log ratio)” value was -2.71. With C18U A60G C76U C103G G112U the “polymerase ribozyme fitness (log ratio)” value was no more than -4.2. With U31C C96G A137U the “polymerase ribozyme fitness (log ratio)” value was no more than -4.2. In the case of C8A A47G A49G A52C U55A G88U U104A A119U U146C U148A, the “polymerase ribozyme fitness (log ratio)” value is reported as no more than -4.2. For C32A C38A U56A C69U C93A A122C G126U, the “polymerase ribozyme fitness (log ratio)” value was no more than -4.2. With U4C C18U G48U A49C G68U G74A C76A G88U C116G the “polymerase ribozyme fitness (log ratio)” value was no more than -4.2. With U56A G70C the “polymerase ribozyme fitness (log ratio)” value was -3.24. In the case of A20U A23C C35U C75U C103G G136A, the “polymerase ribozyme fitness (log ratio)” value is reported as no more than -4.2. With C14G C18U A21G G86C C105U C129A U130C the “polymerase ribozyme fitness (log ratio)” value was no more than -4.2. With C96U A138U the “polymerase ribozyme fitness (log ratio)” value was no more than -4.2. For A66G A73U G81A G92U U111C, the “polymerase ribozyme fitness (log ratio)” value was no more than -4.2. With G84A C99U G100U U144A the “polymerase ribozyme fitness (log ratio)” value was -4.12. For C51U A52U G74C A113C C131A, the “polymerase ribozyme fitness (log ratio)” value was no more than -4.2. With A49C C76A the “polymerase ribozyme fitness (log ratio)” value was no more than -4.2. In the case of U4G A41C G48C A60U A97G A107U, the “polymerase ribozyme fitness (log ratio)” value is reported as no more than -4.2. With C5U A24U C32G U53G C123G A147G U151G the “polymerase ribozyme fitness (log ratio)” value was no more than -4.2. With C85A U139C U145C the “polymerase ribozyme fitness (log ratio)” value was no more than -4.2. With A106G G117A the “polymerase ribozyme fitness (log ratio)” value was 0.816. In the case of C35U C93A A120C G126A A150U, the “polymerase ribozyme fitness (log ratio)” value is reported as -4. For A22G C36A G48A C95G G140C, the “polymerase ribozyme fitness (log ratio)” value was no more than -4.2. In the case of A49C G94C, the “polymerase ribozyme fitness (log ratio)” value is reported as -4.16. In the case of C54U C57G G84U C96A, the “polymerase ribozyme fitness (log ratio)” value is reported as -3.23. For C57G C96A U139G, the “polymerase ribozyme fitness (log ratio)” value was -0.754. For C8U G92U, the “polymerase ribozyme fitness (log ratio)” value was -3.35. For A39C U55G G81C A121U, the “polymerase ribozyme fitness (log ratio)” value was -2.31. For C93U A97C G140A, the “polymerase ribozyme fitness (log ratio)” value was no more than -4.2. In the case of C54G C96U, the “polymerase ribozyme fitness (log ratio)” value is reported as -1.33. For A40C G42A A52C G94C C99U, the “polymerase ribozyme fitness (log ratio)” value was no more than -4.2. For A26C U82A C95A, the “polymerase ribozyme fitness (log ratio)” value was -2. In the case of A41C C149A, the “polymerase ribozyme fitness (log ratio)” value is reported as -4.19. For A24C A64C, the “polymerase ribozyme fitness (log ratio)” value was no more than -4.2. For G46A G81A G136A U146A, the “polymerase ribozyme fitness (log ratio)” value was 0.373. For U55G G59C A142C, the “polymerase ribozyme fitness (log ratio)” value was -3.24. For G11C A39U A73U C96U, the “polymerase ribozyme fitness (log ratio)” value was no more than -4.2. For A24U C35A C87A A91C A150G, the “polymerase ribozyme fitness (log ratio)” value was no more than -4.2. For A12U A21U C38A A106U C116A A119G, the “polymerase ribozyme fitness (log ratio)” value was -3.18. For C57A G74U C85A U130G, the “polymerase ribozyme fitness (log ratio)” value was no more than -4.2. For U15G A17C A40C, the “polymerase ribozyme fitness (log ratio)” value was 0.895. In the case of C79A U101G, the “polymerase ribozyme fitness (log ratio)” value is reported as no more than -4.2. In the case of A12U C54A C95U, the “polymerase ribozyme fitness (log ratio)” value is reported as -1.84. With U13C G58U G94U C95U A142G U144G the “polymerase ribozyme fitness (log ratio)” value was -4.05. For C103G A138G, the “polymerase ribozyme fitness (log ratio)” value was -3.66. With C32G A49C the “polymerase ribozyme fitness (log ratio)” value was no more than -4.2. With C43U G68A G86U the “polymerase ribozyme fitness (log ratio)” value was no more than -4.2. In the case of G34A C79U A107C C108G C116G, the “polymerase ribozyme fitness (log ratio)” value is reported as no more than -4.2. For A40C G83C, the “polymerase ribozyme fitness (log ratio)” value was 0.449. For G74A A89C, the “polymerase ribozyme fitness (log ratio)” value was no more than -4.2. For C57A G124U, the “polymerase ribozyme fitness (log ratio)” value was -0.787. For C14A A41U C76G C87A G92C U144G, the “polymerase ribozyme fitness (log ratio)” value was no more than -4.2. For C51U A52G C87U A137C, the “polymerase ribozyme fitness (log ratio)” value was no more than -4.2. In the case of A52C G86A, the “polymerase ribozyme fitness (log ratio)” value is reported as -1.2. For U56A G88C A142U, the “polymerase ribozyme fitness (log ratio)” value was no more than -4.2. For A20G C35G C51A C85U C99U C129A U148A, the “polymerase ribozyme fitness (log ratio)” value was no more than -4.2. In the case of C5G U7A U33G A91G C93U C118G A122G U144G, the “polymerase ribozyme fitness (log ratio)” value is reported as no more than -4.2. For C8U A41C G46C G71A G83U C116G, the “polymerase ribozyme fitness (log ratio)” value was no more than -4.2. With G80A U144G the “polymerase ribozyme fitness (log ratio)” value was 1.27. For U31C U33C G50U C76U G83C, the “polymerase ribozyme fitness (log ratio)” value was no more than -4.2. In the case of C18U C38U A39C G92U C103U, the “polymerase ribozyme fitness (log ratio)” value is reported as no more than -4.2. With G74C A89U U146C the “polymerase ribozyme fitness (log ratio)” value was no more than -4.2. For A12G G83U G92U A142G, the “polymerase ribozyme fitness (log ratio)” value was -2.93. For C69G C87A A91C G126A, the “polymerase ribozyme fitness (log ratio)” value was no more than -4.2. With A97U the “polymerase ribozyme fitness (log ratio)” value was -0.75. For G50A G83A A97G, the “polymerase ribozyme fitness (log ratio)” value was -0.838. For A39G U53A G58C C72G C95G C103G, the “polymerase ribozyme fitness (log ratio)” value was no more than -4.2. For G86U A89G U145A, the “polymerase ribozyme fitness (log ratio)” value was -3.28. With C75U G92C C132A the “polymerase ribozyme fitness (log ratio)” value was no more than -4.2. With A22G A52G G128C the “polymerase ribozyme fitness (log ratio)” value was -3.48. With A26C U44A U55G G86A G88C the “polymerase ribozyme fitness (log ratio)” value was no more than -4.2. With A21G A39U C75U U82A C87A A98G C118U C125U the “polymerase ribozyme fitness (log ratio)” value was no more than -4.2. For C87U G117C U144A, the “polymerase ribozyme fitness (log ratio)” value was -1.27. With U15A G59U C79G C93A U134A the “polymerase ribozyme fitness (log ratio)” value was no more than -4.2. With A47U A52U C93A C125G U135C the “polymerase ribozyme fitness (log ratio)” value was no more than -4.2. In the case of C35A A39C C87U G92C A138C A147G, the “polymerase ribozyme fitness (log ratio)” value is reported as no more than -4.2. For A12G G83C, the “polymerase ribozyme fitness (log ratio)” value was -0.586. In the case of A17G C93U, the “polymerase ribozyme fitness (log ratio)” value is reported as -0.578. For U61G A122C, the “polymerase ribozyme fitness (log ratio)” value was -1.51. With U15A A29G U78A G88A G126U U135G U148G the “polymerase ribozyme fitness (log ratio)” value was no more than -4.2. For A20C U130G U144C, the “polymerase ribozyme fitness (log ratio)” value was -4.14. In the case of C5G A89G C96U U135G, the “polymerase ribozyme fitness (log ratio)” value is reported as no more than -4.2. With G80U C118A A119G the “polymerase ribozyme fitness (log ratio)” value was -1.3. In the case of U53A G68U C76G U130A C132U G136A A142U, the “polymerase ribozyme fitness (log ratio)” value is reported as no more than -4.2. For U45A C96A, the “polymerase ribozyme fitness (log ratio)” value was -2.56.
